Results on 13 molecules are retold here after patent publication US20260069689A1 (Regeneron, published 2026).

Assay [1] addresses T1, SARS-COV-2 RBD extracellular domain expressed with a C-terminal mouse IgG2a Fc (SARS-CoV-2). Description: Biacore SPR, mAb captured on anti-hFc, 25 C. A general note: Surface plasmon resonance follows binding to a sensor surface in real time, without labels.
Assay [2] addresses T1, SARS-COV-2 RBD extracellular domain …. In words: Biacore SPR, mAb captured on anti-hFc, 37 C.

B1: mAb14289 (antibody, V domains shown)
VH: QVQLVQSGPEVKKPGASVKVSCKASGYTFTSYAISWVRQAPGQGLEWMGWISAYNGNTNYAQKLQGRVTMTTDTFTSTAYMELRSLRSDDTAVYYCAVPADHITFDYWGQGTLVTVSS
VL: EIVLTQSPGTLSLSPGERATLSCRASQSVSSYLAWYQQKPGQAPRLLIHGASSRATGIPDRFSGSGSGTDFTLTISRLEPEDFAVYYCQQYGSSFLTFGGGTKVEIKR
Consider B1, for which, in assay [1], the Kd (as a rule, the free concentration of one partner at which half of the binding sites on the other are occupied at equilibrium, for simple one-to-one binding) worked out at 0.0628 nM; the koff (in general, the first-order rate constant of dissociation) was 8.95e-05 s⁻¹; the on-rate constant (kon) (as a rule, a measure of how fast the partners come together) was 1.43e+06 M⁻¹ s⁻¹; the t½ (commonly the time needed for the level to fall by half in the phase considered) is 2.15 h. In assay [2], this molecule showed a Kd of 0.0907 nM, a koff of 0.000128 s⁻¹, a kon of 1.41e+06 M⁻¹ s⁻¹ and a t½ of 1.5 h.

B2: mAb14255 (antibody, V domains shown)
VH: QVQLQESGPGLVKPSETLSLTCTVSGGSISGYYWSWIRQPPGKGLDWIGYIYYRGNTNYNPSLKSRVTISVDTSNNQFSLKLSSVTAADTAVYYCARYGEGYGDASGYHFDYWGQGTLVTVSS
VL: QSALTQPASVSGSPGQSITISCTGTSSDVGSYNLVSWYQQHPGKAPKLMIYEDSKRPSGVANPFSGSKSGNTASLTISGLQAEDEADYYCSSYAGSSTWVFGGGTKLTVLG
In assay [1], B2 registered a Kd of 0.0726 nM, a koff of 0.000159 s⁻¹, a kon of 2.19e+06 M⁻¹ s⁻¹ and a t½ of 1.21 h. In assay [2], this molecule gave a Kd of 0.118 nM, a koff of 0.00025 s⁻¹, a kon of 2.12e+06 M⁻¹ s⁻¹ and a t½ of 0.77 h.

B3: mAb14313 (antibody, V domains shown)
VH: EVQLVESGGGLVQPGRSLRLSCVASGFTFDDSAMHWVRQPPGKGLEWVSGISWNSGIIGYAESVKGRFIISRDNAKNSLFLHMRGLRPEDTAVYYCARDRLELSYYYYGMDVWGQGTTVTVSS
VL: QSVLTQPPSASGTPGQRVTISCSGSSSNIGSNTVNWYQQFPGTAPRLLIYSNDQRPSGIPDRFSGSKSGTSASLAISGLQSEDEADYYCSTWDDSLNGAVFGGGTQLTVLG
B3: in assay [1], the dissociation constant Kd amounted to 0.0422 nM, the koff came to 9.97e-05 s⁻¹, the kon was 2.36e+06 M⁻¹ s⁻¹ and the t½ stood at 1.93 h. In assay [2], this molecule registered a Kd of 0.0582 nM, a koff of 0.000146 s⁻¹, a kon of 2.52e+06 M⁻¹ s⁻¹ and a t½ of 1.32 h.

B4: mAb14312 (antibody, V domains shown)
VH: EVQLVESGGGLVQPGGSLRLSCAASGFTVSRSYMTWVRQAPGKGLEWVSVIFTGGRTDHADSVKGRFTISRHNSKNTLYLQMNSLRTEDTAVYYCARVAIVGATGAFDIWGQGTMVTVSS
VL: QSVLTQPPSVSGAPGQRVTISCTGSSSNIGAGDDVHWYQQLPGTAPKLLIYGNSNRPSGVPDRFSGSKSGTSASLAITGLQAEDEADYYCQSYDSSLSGSVVFGGGTKLTVLG
As for B4, in assay [1], binding was characterised by a dissociation constant (Kd) of 0.0334 nM, the dissociation rate constant (koff) turned out to be 5.6e-05 s⁻¹, the kon came to 1.68e+06 M⁻¹ s⁻¹ and the t½ came to 3.44 h. In assay [2], this molecule gave a Kd of 0.0347 nM, a koff of 5.8e-05 s⁻¹, a kon of 1.67e+06 M⁻¹ s⁻¹ and a t½ of 3.32 h.

B5: mAb14257 (antibody, V domains shown)
VH: EVQLVESGGGLVQPGGSLRLSCAASGFTVSRSYMNWVRQAPGKGLEWVSVVFTGGTTKHTDSVKGRFTISRDNSMNTLYLQMNSLRPEDTAVYYCARVAIVETTGAFDIWGQGTMVTVSS
VL: QSVLTQPPSVSGAPGQRVTISCTGTSSNIGADFDVHWYQQFPGTAPKLLIYGHTNRPSGIPDRFSGSKSGTSASLAITGLQAEDEADYYCQSYDSSLSGSVVFGGGTKLTVLG
In assay [1], B5 showed a Kd of 0.0907 nM, a koff of 0.000254 s⁻¹, a kon of 2.81e+06 M⁻¹ s⁻¹ and a t½ of 0.757 h. In assay [2], this molecule had a Kd of 0.121 nM, a koff of 0.000339 s⁻¹, a kon of 2.81e+06 M⁻¹ s⁻¹ and a t½ of 0.568 h.

B6: mAb14294 (antibody, V domains shown)
VH: EVQLVESGGGLVQPGGSLRLSCAASGFTFSNHWMDWVRQAPGKGLVWVSRINSDGSSTDYADSVRGRFTMSRDNAKNTLYLQMSSLRAEDTAVYYCAREGMIFGAVIIPGWYFDLWGRGALVTVSS
VL: EIVLTQSPGTLSLSPGERATLSCRASQSVSSSQLAWYQQKPGQAPRLLIYGASSRATGIPDRFSGSGSGTDFTLTISRLEPEDFAVYYCQQYDSFGQGTKLEIKR
B6: in assay [1], the Kd came to 0.0294 nM, the koff is 2.68e-05 s⁻¹, the on-rate (kon) was 911000 M⁻¹ s⁻¹ and the t½ came out at 7.17 h. In assay [2], this molecule came in with a Kd of 0.0386 nM, an off-rate (koff) of 3.5e-05 s⁻¹, a kon of 906000 M⁻¹ s⁻¹ and a t½ of 5.5 h.

B7: mAb13458 (antibody, V domains shown)
VH: EVQLVESGGGLVQPGRSLRLSCAASGFTFDDYAMHWVRQAPGKGLEWVSGISWNSGSIGYADSVKGRFTISRDNAKNSLYLQMNSLRAEDTALYYCAKDIGITTPYWGQGTLVTVSS
VL: AIQMTQSPSSLSASVGDRVTITCRASQDIRNDLGWYQQKPGKAPKLLIYSASSLQTGVPSRFSGSGSGTDFTLTISSLHPEDFATYYCLQDYWYTWTFGQGTKVEIKR
B7: in assay [1], the Kd is 0.064 nM, the koff is 7.55e-05 s⁻¹, the kon is 1.18e+06 M⁻¹ s⁻¹ and the t½ is 2.55 h. In addition, in assay [2], binding was put at a Kd of 0.0784 nM, the koff was found to be 9.12e-05 s⁻¹, the kon turned out to be 1.16e+06 M⁻¹ s⁻¹ and the t½ is 2.11 h.

B8: mAb14284 (antibody, V domains shown)
VH: QITLKESGPTLVKPTQTLTLTCTFSGFSFSTSGVGVGWIRQPPGKTLEWLALIYWDDDKRYSPSLKSRLTITKDTSKNQVVLTMTNMDPVDTATYFCAHHGIPTIFGYWGQGALVTVSS
VL: QSALTQPASVSGSPGQSITISCTGTSSDLGVFNYVSWYQQHPGKAPKLMIYEVTNRPSGVSNRFSGSKSGNTASLTISGLQAEDEADYYCSSYTTSSTVFGGGTKLTVLG
In assay [1], B8 returned a Kd of 0.0255 nM, a koff of 2.12e-05 s⁻¹, a kon of 831000 M⁻¹ s⁻¹ and a t½ of 9.08 h. In assay [2], this molecule registered a Kd of 0.027 nM, a koff of 2.24e-05 s⁻¹, a kon of 830000 M⁻¹ s⁻¹ and a t½ of 8.6 h.

B9: mAb14235 (antibody, V domains shown)
VH: QITLKESGPTLVKPTQTLTLTCTFSGFSLNTGGVGVGWIRQPPGNALEWLALIYWDDDKRYNPSLKTRLTISKDTSKNQVVLTMTNMDPVDTATYFCAHLTIAVIVDFWGQGTLVTVSS
VL: QSALTQPASVSGSPGQSITISCTATSSDVGTYNYVSWFQHHPGKAPKLMIYEVTNRPSGVSNRFSGSKSGNTASLTISGLQAEDEADYYCSSYTTTSIVFGGGTKLTVLG
Consider B9, for which, in assay [1], the Kd is 0.0627 nM, the koff came out at 6.89e-05 s⁻¹, the kon stood at 1.1e+06 M⁻¹ s⁻¹ and the t½ was found to be 2.79 h. For the same molecule, in assay [2], the Kd came to 0.0612 nM, the koff is 6.68e-05 s⁻¹, the kon worked out at 1.09e+06 M⁻¹ s⁻¹ and the t½ was 2.88 h.

B10: mAb14315 (antibody, V domains shown)
VH: QVQLVQSGAEVKKPGSSVKVSCKASGDTFSTYAINWVRQAPGQGLEWMGRFIHIFGTANYAQKFQGRVTITADESTSTAYMELRSLRSEDTAVYYCARDGVDYGDYRPDYWGQGTLVTVSS
VL: EIVLTQSPGTLSLSPGERATLSCRASQSVSSNYLAWYQQKPGQAPRLLIYGASSRATGIPERFSGSGSGTDFTLTISRLEPEDFAVYYCQQYGSSLYTFGQGTKLEIKR
Turning to B10, in assay [1], the affinity, expressed as Kd, was 0.0784 nM; the off-rate constant (koff) is 6.26e-05 s⁻¹; the kon is 799000 M⁻¹ s⁻¹; the t½ was found to be 3.07 h. For the same molecule, in assay [2], the Kd turned out to be 0.0903 nM, the koff was found to be 7.91e-05 s⁻¹, the kon worked out at 877000 M⁻¹ s⁻¹ and the t½ was 2.43 h.

B11: mAb14247 (antibody, V domains shown)
VH: QITLKESGPTLVKPTQTLTLTCTFSGFSLSTSAVGVGWIRQPPGKALEWLALIYWDDDKRYSPSLKSRLTITKDTSKNQLVLTMTNVDPVDTATYYCAHHTIQLIFDYWGQGTLVTVSS
VL: QSALTQPASVSGSPGQSITISCTATSSDVGNYNYVSWYQQHPGKAPKLMIYEVSNRPSGVSNRFSGSKSGNTASLTISGLQAEDEADYYCSSYTSSSTPLVFGGGTKLTVLG
Turning to B11, in assay [1], the affinity, expressed as Kd, was 0.131 nM; the koff amounted to 0.000156 s⁻¹; the kon worked out at 1.19e+06 M⁻¹ s⁻¹; the t½ came out at 1.23 h. In assay [2], this molecule registered a Kd of 0.127 nM, a koff of 0.00015 s⁻¹, a kon of 1.18e+06 M⁻¹ s⁻¹ and a t½ of 1.28 h.

B12: mAb14283 (antibody, V domains shown)
VH: QVQLQESGPGLVKPSGTLSLTCDVSGGSISSNNWWSWVRQRPGKGLQWIGEIYHNENTNYNPSLKSRVIMSIDKSKNQFSLKLTSVTAADTAVYYCARGDVLDWFDPWGQGTLVTVSS
VL: QSALTQPASVSGSPGQSTTISCTGTSSDVGGYNYVSWYQQYPGKAPKLMIYDVTNRPSGVSHRFSGSKSGNTASLTISGLQAEDEADYYCSSYTSSSTVIFGGGTKLTVLG
Consider B12, for which, in assay [1], the dissociation constant (Kd) came to 0.0524 nM, the off-rate (koff) amounted to 8.14e-05 s⁻¹, the kon worked out at 1.55e+06 M⁻¹ s⁻¹ and the t½ was determined as 2.37 h. For the same molecule, in assay [2], the Kd was determined as 0.0631 nM, the koff came out at 9.59e-05 s⁻¹, the on-rate (kon) came to 1.52e+06 M⁻¹ s⁻¹ and the t½ was 2.01 h.

B13: mAb14286 (antibody, V domains shown)
VH: QVQLVQSGAEVKKPGASVKVSCKASGYTFTDYFIHWVRQAPGQGLEWMGWINPTSGGTNYAQKFRGRVTMTRDTSISTAYVELSRLRSDDTALYYCARDLPFYSDTKQFDYWGQGTLVTVSS
VL: QSALTQPASVSGYPGQSITISCTGTSSDVGGYNYVSWYQQHPGKAPKLMIFDVSNRPSGVSNRFSGSKSGNTASLTFSGLQAEDEADYYCSSYTSSSTLVFGGGTKLTVLG
As to B13, in assay [1], the affinity, expressed as Kd, was 0.222 nM; the koff is 0.000655 s⁻¹; the kon turned out to be 2.95e+06 M⁻¹ s⁻¹; the t½ is 0.293 h. In assay [2], this molecule had a Kd of 0.18 nM, a koff of 0.000528 s⁻¹, a kon of 2.94e+06 M⁻¹ s⁻¹ and a t½ of 0.365 h.
